What was measured:
GFP-EB1 (human) (human) = GFP-EB1 (human) (human) (UniProt Q15691); test: TIRF microscopy of reconstituted dynamic microtubules
[1] = target: microtubules of tubulin purified from bovine brain (bovine) (UniProt Q6B856); test: co-sedimentation; conditions: scale: molecule per 100 dimers of polymerized tubulin
[2] = target: biotinylated EB1 (mouse end-binding protein 1) (mouse) (UniProt Q61166); test: pull-down
Sequence of biotinylated EB1 (mouse end-binding protein 1) (mouse) (Q61166 whole entry): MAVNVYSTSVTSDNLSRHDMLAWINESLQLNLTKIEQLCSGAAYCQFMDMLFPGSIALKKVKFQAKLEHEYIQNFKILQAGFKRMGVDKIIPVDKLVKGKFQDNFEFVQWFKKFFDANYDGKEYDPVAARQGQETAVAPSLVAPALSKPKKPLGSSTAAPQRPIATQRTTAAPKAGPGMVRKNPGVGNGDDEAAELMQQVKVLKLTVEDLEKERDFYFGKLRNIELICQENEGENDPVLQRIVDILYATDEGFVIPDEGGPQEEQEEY

Sequence of GFP-EB1 (human) (human) (Q15691 whole entry): as the sequence (Q61166 whole entry) above, with E123D, S147N, G154T, T157S, A165S, T170A, M179V, K201N counted along it

| GFP-EB1 comet intensity at microtubule ends with 75 nM tau protein (GFP-EB1 (human) (human)) | tau molecules bound per 100 dimers of polymerized tubulin [1] | percent bound to EB1 compared with tau [2] | Substance |
| --- | --- | --- | --- |
| 7 a.u. | – | – | P2R′-tau (tau fragment from P2 to R′) (from UniProt P10636-7 169-371) (domain or fragment) |
| – | 1 | 50.1% | S262E-tau (phosphomimetic tau, serine 262 replaced by glutamate) (natural protein) |

Source: PMC5042579
